This data set deals with the molecule itself. The experiment in a line: SEC; HiLoad 16/60 Superdex 200 prep grade column on an Äkta FPLC in buffer A (20 mM Hepes, 300 mM NaCl, 100 mM L-arginine, 1 mM TCEP, pH 7.0); molecular weight from a calibration curve of gel filtration standards; self-association, dimer or monomer.

B1: recombinant BosR with a C-terminal Strep-II tag (WT rBosR-StrepII) (natural protein)
chain: MNDNIIDVHSALEKVGITNDPVLLKNLTSELGMKASHSRNRIILYIASNPKEYFTAKEVYNKLIKEIPSLSKATVYNTLNILKERNILKDIKTTDQKETKFYLSLASTIAHFKCNKCNQVHPIQLDDIKDILKDKLGENWETKSIEIIYSGHCNNCYKKDTHNNNNVPDENKEITL
notes: BosR (Fur family member), Borrelia burgdorferi strain 297, ORF bb0647; bosR amplified with primers from the ATG start codon to the last codon before the stop, fused directly to the Strep-II tag; theoretical MW of rBosR-StrepII 21.25 kDa; also called pOY436; source: E. coli M15 (pREP4), purified (Strep-Tactin resin, Superdex 200 FPLC)
As to B1, the “stoichiometry N” value came to 2.

Source of the values: paper PMC6476982, “The CXXC Motifs Are Essential for the Function of BosR in Borrelia burgdorferi” (Frontiers in Cellular and Infection Microbiology, 2019).
